Test results from patent US20250101127A1 (CYRON THERAPEUTICS, published 2025).

Target: T1, MUC1 (Mucin-1) as expressed by human cancer cell lines (human, UniProt P15941 24-1255)
T1 construct: whole, on cells; Endogenous antigen on the cell surface (flow cytometry) or in cell lysates (immunoprecipitation, western blot); also called MUC1 antigen; antigen recognized by the MP1 monoclonal antibody
Assay: flow cytometry, SiHa cells; grade = percent MP1 positive cells (+: 20-30%)
Description: The MP1 monoclonal antibody of the present invention was added to the cultured various cancer cells, respectively, and they were reacted at 4° C. for 30 minutes and then washed with PBS, and FITC-conjugated goat anti mouse IgG (Jackson ImmunoResearch, USA) was added and they were cultured at 4° C. for 15 minutes. They were washed with PBS again, and then were analyzed with FACS caliber (Becton Dickinson, USA) to confirm the reactivity of the MP1 antibody in various solid cancer cell lines (Table 9).

T1 sequence (P15941 24-1255): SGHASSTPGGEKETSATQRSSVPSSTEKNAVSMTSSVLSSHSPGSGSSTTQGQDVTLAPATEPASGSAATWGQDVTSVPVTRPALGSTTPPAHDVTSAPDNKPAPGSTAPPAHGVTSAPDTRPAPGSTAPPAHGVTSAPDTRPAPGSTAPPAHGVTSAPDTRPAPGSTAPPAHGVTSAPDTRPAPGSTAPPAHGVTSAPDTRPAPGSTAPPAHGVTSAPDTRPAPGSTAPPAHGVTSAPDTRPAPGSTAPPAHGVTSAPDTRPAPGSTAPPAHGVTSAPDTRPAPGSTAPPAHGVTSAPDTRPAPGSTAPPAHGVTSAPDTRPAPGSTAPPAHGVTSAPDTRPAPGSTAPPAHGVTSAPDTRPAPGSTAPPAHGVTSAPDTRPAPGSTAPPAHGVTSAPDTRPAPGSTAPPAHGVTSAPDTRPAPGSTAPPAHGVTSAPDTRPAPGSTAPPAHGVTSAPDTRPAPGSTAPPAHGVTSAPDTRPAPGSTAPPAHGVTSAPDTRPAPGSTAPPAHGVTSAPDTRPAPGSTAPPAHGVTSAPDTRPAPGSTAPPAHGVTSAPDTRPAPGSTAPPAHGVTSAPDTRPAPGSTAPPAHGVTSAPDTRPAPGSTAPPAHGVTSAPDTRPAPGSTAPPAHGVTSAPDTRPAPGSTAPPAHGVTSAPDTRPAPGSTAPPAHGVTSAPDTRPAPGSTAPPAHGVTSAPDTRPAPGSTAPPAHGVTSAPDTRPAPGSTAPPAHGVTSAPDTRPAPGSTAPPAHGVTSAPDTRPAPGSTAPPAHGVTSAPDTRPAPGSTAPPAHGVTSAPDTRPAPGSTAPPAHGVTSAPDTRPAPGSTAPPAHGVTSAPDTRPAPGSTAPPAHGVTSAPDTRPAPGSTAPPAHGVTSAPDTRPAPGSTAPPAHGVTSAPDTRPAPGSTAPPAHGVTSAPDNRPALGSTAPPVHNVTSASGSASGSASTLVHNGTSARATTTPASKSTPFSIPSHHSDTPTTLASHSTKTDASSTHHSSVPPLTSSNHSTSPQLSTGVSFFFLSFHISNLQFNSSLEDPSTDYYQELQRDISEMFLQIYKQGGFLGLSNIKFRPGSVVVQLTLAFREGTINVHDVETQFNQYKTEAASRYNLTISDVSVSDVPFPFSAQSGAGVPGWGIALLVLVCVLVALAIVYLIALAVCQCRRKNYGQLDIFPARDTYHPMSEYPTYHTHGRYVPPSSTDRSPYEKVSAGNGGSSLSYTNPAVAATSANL

B1: MP1 monoclonal antibody (antibody, V domains shown)
VH: EVKVDETGGGLVQPGRPMKLSCVVSGITFSDYWMNWVRQSPEKGLEWVAQIRNKPYNYETYYSNSVKGRFTISRDDSKSSVYLQMNNLRAEDMGIYYCTWAMITSDGYAMDYWGQGTSVTVSS
VL: DIVMSQSPSSLAVSVGEKVTLICKSSQSLLLSSNQKNYLAWYQQKPGQSPKLLIYWASTRESGVPDRFTGSGSGTDFTLTINSVKAEDLAVYYCQQCFSYPLTFGAGTKLELK
notes: also called mouse antibody MP1; MP1 Ab
B1: binds.
